Results on five molecules are retold here after patent publication US7379820 (Pfizer, dated 2008).

The target of the assay is T1, MBP-TRADD (full-length TRADD protein expressed as a MBP fusion) (UniProt Q15628 1-312).
T1 construct: mature; Immobilized on 96 well plates for ELISA
T1 sequence (looked up): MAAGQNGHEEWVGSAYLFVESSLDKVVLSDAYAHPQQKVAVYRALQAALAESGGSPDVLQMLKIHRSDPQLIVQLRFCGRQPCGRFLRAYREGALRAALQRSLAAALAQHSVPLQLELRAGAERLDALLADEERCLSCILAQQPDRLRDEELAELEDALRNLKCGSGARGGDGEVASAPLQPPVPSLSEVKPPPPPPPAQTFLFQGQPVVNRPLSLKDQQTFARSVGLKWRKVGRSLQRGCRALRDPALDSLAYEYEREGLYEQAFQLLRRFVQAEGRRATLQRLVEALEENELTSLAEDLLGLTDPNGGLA
Put plainly: ELISA, MBP-TRADD immobilized on 96 well plates. The method, then:
RIP DD binding assay. RIP DD binding to TRADD was determined by an enzyme-linked immunosorbent assay (ELISA). Ninety six well plates were coated overnight at 4° C. with 200 ng of MBP-TRADD, MBP-TNFR-1 DD, or MBP-IL1RacP (interleukin-1 receptor accessory protein) in coating buffer (25 mM MOPS pH 7.5, 150 mM NaCl, 10 mM DTT, 0.02% NaN_3). The plates were then incubated in blocking buffer (10 mM MOPS pH 7.5, 150 mM NaCl, 0.05% Tween 20, 0.1% Gelatin, 0.02% NaN_3) for one hour followed by one hour incubation with the different RIP DD proteins in binding buffer (100 mM Tris pH 7.5, 140 mM NaCl, 0.1 mM EDTA, 0.2% Triton X-100, 10 mM DTT). The plates were washed 4 times in 10 mM potassium phosphate buffer pH 7.4, 0.05% Tween 20. The bound His tagged proteins were then incubated for 30 minutes in 10 mM MOPS pH 7.5, 150 mM NaCl, 0.05% Tween 20, 0.02% NaN_3 anti-6× His biotinylated anti mouse antibody and strepavidin conjugated alkaline phosphatase. The plates were washed 4 times in 10 mM potassium phosphate buffer pH 7.4, 0.05% Tween. Tropix CDP-Star/Sapphire II solution was used for the luminescent detection of alkaline phosphatase.
Figure 4: FIGS. 4A and 4B. (A) Effect of the ionic strength on the binding of RIP-DD (30 μg/mL) to MBP-TRADD. (B) ELISA of RIP-DD binding to MBP-TRADD. MBP-TRADD was immobilized at 500 ng/well on 96 well plates. The reference at 100% is the binding of the wild type protein to MBP-TRADD. The values used for the determination of the binding percentage were obtained with ~30 μg/ml of soluble protein. Figure 4: Figure 5: FIG. 5. Sequence alignment of the death domains of FAS (SEQ ID NO:2) and RIP (SEQ ID NO:3). Identical residues and homologous residues are shaded. The helices identified from the NMR structure of FAS DD (Huang et al., 1996) are located above the sequence and the helices identified from the NMR structure of RIP DD are located below the sequence.
A general note: An ELISA detects its analyte on a solid surface through an enzyme-linked reagent.

Where a chain is given by its changes, count along the chain named.

B1: RIP DD E626A (other)
chain: MAIFDNTTSLTDKHLDPIRENLGKHWKNCARKLGFTQSQIDEIDHDYERDGLKAKVYQMLQKWVMREGIKGATVGKLAQALHQCSRIDLLSSLIYVSQNHHHHHHH
notes: Single point alanine mutant of the His-tagged RIP DD construct; soluble mutant
As for B1, the binding result is reported as “no binding (tested: ~30 µg/ml of soluble protein)”.

B2: RIP DD K599A (other)
chain: B1 chain with K27A, A54E
notes: Single point alanine mutant of the His-tagged RIP DD construct
Turning to B2, the binding result is reported as “no binding (tested: ~30 µg/ml of soluble protein)”.

B3: RIP DD R603A (other)
chain: B1 chain with R31A, A54E
notes: as for B1
On to B3, for which the binding result is “no binding (tested: ~30 µg/ml of soluble protein)”.

B4: RIP DD K625A (other)
chain: B1 chain with K53A, A54E
notes: as for B2
For the molecule B4, the binding result was “no binding (tested: ~30 µg/ml of soluble protein)”.

B5: RIP DD K627A (other)
chain: B1 chain with A54E, K55A
notes: as for B2
As for B5, the binding result was “no binding (tested: ~30 µg/ml of soluble protein)”.
